Test results taken from publication PMC4728560, “TCTP contains a BH3-like domain, which instead of inhibiting, activates Bcl-xL” (Scientific Reports, 2016).
Like-named read-outs stand apart in the source and are kept apart here.

How the values were obtained:
[1] = biological target: Bcl-xL, recombinant protein (human) (UniProt Q07817); assay: ITC; peptide titrated into Bcl-xL in the cell; 30 °C, 50 mM ammonium bicarbonate pH 9; ITC200 calorimeter
[2] = biological target: Bcl-xL, recombinant protein (human) (UniProt Q07817); assay: as above; remark: listed apart in the source

Sequence of Bcl-xL, recombinant protein (human) (Q07817 whole entry): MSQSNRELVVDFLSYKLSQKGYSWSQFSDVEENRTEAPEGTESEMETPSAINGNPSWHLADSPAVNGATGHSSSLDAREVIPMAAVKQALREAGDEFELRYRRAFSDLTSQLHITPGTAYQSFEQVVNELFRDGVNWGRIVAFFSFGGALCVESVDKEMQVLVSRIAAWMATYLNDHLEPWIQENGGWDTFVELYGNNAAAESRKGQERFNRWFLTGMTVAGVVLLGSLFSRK

Kd [1]: 12 µM
Kd [2]: 10 to 15 µM
Binder: DEMFSDIYKIREIADGLCLEV [TCTP_(11–31) peptide]
